In patent US20140322759 one finds Kd data, which are given here for 1 sequence.

Positions count from the first letter of the chain named.

Assay in all cases: EMSA
The target of data set [1] is T1, phi29 DNA polymerase E221K E221K (Bacillus phage phi29) (UniProt P03680).
T1 sequence: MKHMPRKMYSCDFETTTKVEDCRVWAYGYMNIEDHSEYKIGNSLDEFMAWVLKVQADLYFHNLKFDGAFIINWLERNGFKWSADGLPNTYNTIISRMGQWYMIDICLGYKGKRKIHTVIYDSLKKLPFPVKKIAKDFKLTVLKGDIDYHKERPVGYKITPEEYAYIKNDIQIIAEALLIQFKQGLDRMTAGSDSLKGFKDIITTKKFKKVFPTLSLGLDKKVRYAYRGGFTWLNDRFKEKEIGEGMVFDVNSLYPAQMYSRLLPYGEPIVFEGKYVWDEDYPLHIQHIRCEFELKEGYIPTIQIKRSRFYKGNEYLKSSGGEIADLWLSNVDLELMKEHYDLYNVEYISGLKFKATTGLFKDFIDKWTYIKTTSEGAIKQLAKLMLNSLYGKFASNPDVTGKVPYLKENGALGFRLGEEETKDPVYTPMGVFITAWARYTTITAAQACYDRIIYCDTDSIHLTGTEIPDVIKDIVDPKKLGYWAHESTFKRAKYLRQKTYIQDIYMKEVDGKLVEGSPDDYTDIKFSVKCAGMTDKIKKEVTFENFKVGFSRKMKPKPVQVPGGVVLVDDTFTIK
To be noted: SD 18.4; unit not given (μM in assay); pH 7.9, 66 mM K-acetate, 30 C.

Data set [2] addresses T2, phi29 DNA polymerase M97T M97T (Bacillus phage phi29) (UniProt P03680).
T2 sequence: T1 sequence with M97T, K221E
To be noted: SD 2.5; unit not given (μM in assay); pH 7.9, 66 mM K-acetate, 30 C.

The target of data set [3] is T3, phi29 DNA polymerase Mut_4 M8R,V51A,M97T,G197D,E221K (Bacillus phage phi29) (UniProt P03680).
T3 sequence: T1 sequence with M8R, V51A, M97T, G197D
To be noted: SD 10.6; unit not given (μM in assay); pH 7.9, 66 mM K-acetate, 30 C.

The target in data set [4] is T4, phi29 DNA polymerase Mut_5 M8R,V51A,M97T,G197D,E221K,Q497P,K512E,F526L (Bacillus phage phi29) (UniProt P03680).
T4 sequence: T1 sequence with M8R, V51A, M97T, G197D, Q497P, K512E, F526L
As to conditions: SD 7.4; unit not given (μM in assay); pH 7.9, 66 mM K-acetate, 30 C.

A word on the Kd: it is the equilibrium constant for the complex coming apart. Low values mean a tighter complex, high ones a looser complex. Consider “GATCACAGTGAGTAC / TCTATTGTACTCACTGTGATC [15-mer/21-mer primer/template]”, for which the dissociation constant (Kd) is 67 µM in data set [1], 37 µM in data set [2], 67 µM in data set [3] and 23 µM in data set [4].
